In patent publication US20220041756A1 (Chugai, published 2022):

Molecular target: T1, human CD3 epsilon on human CD3 epsilon-expressing Ba/F3 cells (human, UniProt P07766 23-207)
T1 construct: The Ba/F3 transfectant is not itself tied to that entry; also called CD3/BaF; CD3 epsilon chain
Assay: flow cytometry on human CD3 epsilon-expressing Ba/F3 cells, FITC-labeled secondary antibody, calibration curve
Method: After washing these cells, an FITC-labeled secondary antibody was added for further reaction. After washing the cells, the fluorescent intensity of the label on the cells was measured using Epics XL flow cytometer (Beckman coulter) to prepare a calibration curve for each antibody.
Plasma was prepared from the blood and diluted appropriately. […] The plasma concentration of each antibody was calculated using determined values and the calibration curves described above.

T1 sequence (P07766 23-207 limits assumed): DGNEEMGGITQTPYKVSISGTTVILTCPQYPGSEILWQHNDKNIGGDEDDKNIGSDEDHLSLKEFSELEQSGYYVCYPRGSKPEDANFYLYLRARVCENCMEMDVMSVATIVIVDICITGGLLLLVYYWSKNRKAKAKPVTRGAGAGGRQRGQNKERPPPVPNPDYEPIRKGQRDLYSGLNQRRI

Binder | binding result
GPC3 ERY9-1 (bispecific antibody, human IgG1, kappa, L234A L235A, N297A, Anti-GPC3 IgG backbone with silent Fc) heavy: not shown light 1: DIVMTQSPLSLPVTPGEPASISCRSSQSLVHSNRNTYLHWYQQKPGQAPRLLIYKVSNRFSGVPDRFSGSGSGTDFTLKISRVEAEDVGVYYCSQNTHVPPTFGQGTKLEIKRTVAAPSVFIFPPSDEQLKSGTASVVCLLNNFYPREAKVQWKVDNALQSGNSQESVTEQDSKDSTYSLSSTLTLSKADYEKHKVYACEVTHQGLSSPVTKSFNRGECHHHHHHHH light 2: DIVMTQSPLSLPVTPGEPASISCRSSQSLVHSNRNTYLHWYQQKPGQAPRLLIYKVSNRFSGVPDRFSGSGSGTDFTLKISRVEAEDVGVYYCSQNTHVPPTFGQGTKLEIKRTVAAPSVFIFPPSDEQLKSGTASVVCLLNNFYPREAKVQWKVDNALQSGNSQESVTEQDSKDSTYSLSSTLTLSKADYEKHKVYACEVTHQGLSSPVTKSFNRGECGGGGSGGGGSQAVVTQESALTTSPGETVTLTCRSSTGAVTTSNYANWVQEKPDHLFTGLIGGTNKRAPGVPARFSGSLIGDKAALTITGAQTEDEAIYFCALWYSNLWVFGGGTKLTVLGGGGSGGGGSGGGGSEVKLLESGGGLVQPKGSLKLSCAASGFTFNTYAMNWVRQAPGKGLEWVARIRSKYNNYATYYADSVKDRFTISRDDSQSILYLQMNNLKTEDTAMYYCVRHGNFGNSYVSWFAYWGQGTLVTVSADYKDDDDK | binds
GPC3 ERY10-1 (bispecific antibody, human IgG1, kappa, L234A L235A, N297A, Anti-GPC3 IgG backbone with silent Fc and knobs-into-holes CH3; also called GPC ERY10-1) heavy 1: QVQLVQSGAEVKKPGASVKVSCKASGYTFTDYEMHWIRQPPGQGLEWIGAIDPKTGDTAYSQKFKGRVTLTADKSTSTAYMELSSLTSEDTAVYYCTRFYSYTYWGQGTLVTVSSASTKGPSVFPLAPSSKSTSGGTAALGCLVKDYFPEPVTVSWNSGALTSGVHTFPAVLQSSGLYSLSSVVTVPSSSLGTQTYICNVNHKPSNTKVDKKVEPKSCDKTHTCPPCPAPEAAGGPSVFLFPPKPKDTLMISRTPEVTCVVVDVSHEDPEVKFNWYVDGVEVHNAKTKPREEQYASTYRVVSVLTVLHQDWLNGKEYKCKVSNKALPAPIEKTISKAKGQPREPQVYTLPPSRCELTKNQVSLSCAVKGFYPSDIAVEWESNGQPENNYKTTPPVLDSDGSFFLVSKLTVDKSRWQQGNVFSCSVMHEALHNHYTQKSLSLSPGGGGSGGGGSQAVVTQESALTTSPGETVTLTCRSSTGAVTTSNYANWVQEKPDHLFTGLIGGTNKRAPGVPARFSGSLIGDKAALTITGAQTEDEAIYFCALWYSNLWVFGGGTKLTVLGGGGSGGGGSGGGGSEVKLLESGGGLVQPKGSLKLSCAASGFTFNTYAMNWVRQAPGKGLEWVARIRSKYNNYATYYADSVKDRFTISRDDSQSILYLQMNNLKTEDTAMYYCVRHGNFGNSYVSWFAYWGQGTLVTVSADYKDDDDK heavy 2: QVQLVQSGAEVKKPGASVKVSCKASGYTFTDYEMHWIRQPPGQGLEWIGAIDPKTGDTAYSQKFKGRVTLTADKSTSTAYMELSSLTSEDTAVYYCTRFYSYTYWGQGTLVTVSSASTKGPSVFPLAPSSKSTSGGTAALGCLVKDYFPEPVTVSWNSGALTSGVHTFPAVLQSSGLYSLSSVVTVPSSSLGTQTYICNVNHKPSNTKVDKKVEPKSCDKTHTCPPCPAPEAAGGPSVFLFPPKPKDTLMISRTPEVTCVVVDVSHEDPEVKFNWYVDGVEVHNAKTKPREEQYASTYRVVSVLTVLHQDWLNGKEYKCKVSNKALPAPIEKTISKAKGQPREPQVCTLPPSRDELTKNQVSLWCLVKGFYPSDIAVEWESNGQPENNYKTTPPVLDSDGSFFLYSKLTVDKSRWQQGNVFSCSVMHEALHNHYTQKSLSLSPHHHHHHHH light: DIVMTQSPLSLPVTPGEPASISCRSSQSLVHSNRNTYLHWYQQKPGQAPRLLIYKVSNRFSGVPDRFSGSGSGTDFTLKISRVEAEDVGVYYCSQNTHVPPTFGQGTKLEIKRTVAAPSVFIFPPSDEQLKSGTASVVCLLNNFYPREAKVQWKVDNALQSGNSQESVTEQDSKDSTYSLSSTLTLSKADYEKHKVYACEVTHQGLSSPVTKSFNRGEC | binds
